Assay results reported in article PMC8367383, “A CTP-dependent gating mechanism enables ParB spreading on DNA” (eLife, 2021).

B1: C. crescentus ParB on a cysteine-less ParB background [C. crescentus] / itself (parent)
chain: MESVVVGEPGMSEGRRGLGRGLSALLGEVDAAPACAPGEQLGGSREAPIEILQRNPDQPRRTFREEDLEDLSNSIREKGVLQPILVRPSPDTAGEYQIVAGERRWRAAQRAGLKTVPIMVRELDDLAVLEIGIIENVQRADLNVLEEALSYKVLMEKFERTQENIAQTIGKSRSHVANTMRLLALPDEVQSYLVSGELTAGHARAIAAAADPVALAKQIIEGGLSVRETEALARKAPNLSAGKSKGGRPPRVKDTDTQALESDLSSVLGLDVSIDHRGSTGTLTITYATLEQLDDLSNRLTRGI

Variants of: B1
Assay: BMOE crosslinking assay
Conditions: with itself, 8 µM ParB variant, 0.5 µM 22 bp parS DNA, 5 min preincubation, read off a plot
[1] = 1 µM CTP point (lowest), parent: 33
[2] = 1000 µM CTP point (highest), parent: 80

Row | Variant | response [1] | response [2]
1 | chain 1 R139A | 28% | 36%
2 | chain 1 E135A | 68% | 80%
3 | chain 1 R60A | 32% | 49%
4 | chain 1 Q82A | 31% | 76%
5 | chain 1 S74A | 28% | 39%
6 | chain 1 R103A | 30% | 34%
7 | chain 1 E102A | 31% | 80%
8 | chain 1 R104A | 24% | 23%
9 | chain 1 G79S | 27% | 62%
10 | chain 1 Q58A | 64% | 79%
11 | chain 1 N136A | 52% | 64%
